T1: human IL-28R alpha subunit (human, UniProt Q8IU57 21-228, limits assumed)
T1 construct: also called IL28R1; IL-28R1
T1 sequence: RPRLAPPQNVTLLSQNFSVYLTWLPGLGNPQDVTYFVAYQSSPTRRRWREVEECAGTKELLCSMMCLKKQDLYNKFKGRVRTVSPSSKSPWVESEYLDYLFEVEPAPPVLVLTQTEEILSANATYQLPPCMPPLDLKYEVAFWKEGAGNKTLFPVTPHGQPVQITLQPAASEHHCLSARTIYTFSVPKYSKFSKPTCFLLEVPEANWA

B1: human IL-28A (ligand)
chain: VPVARLHGALPDARGCHIAQFKSLSPQELQAFKRAKDALEESLLLKDCRCHSRLFPRTWDLRQLQVRERPMALEAELALTLKVLEATADTDPALVDVLDQPLHTLHHILSQFRACIQPQPTAGPRTRGRLHHWLYRLQEAPKKESPGCLEASVTFNLFRLLTRDLNCVASGDLCV
notes: also called IFN-λ2; interferon-lambda-2
B2: human IL-28B (ligand)
chain: VPVARLRGALPDARGCHIAQFKSLSPQELQAFKRAKDALEESLLLKDCKCRSRLFPRTWDLRQLQVRERPVALEAELALTLKVLEATADTDPALGDVLDQPLHTLHHILSQLRACIQPQPTAGPRTRGRLHHWLHRLQEAPKKESPGCLEASVTFNLFRLLTRDLNCVASGDLCV
notes: also called IFN-λ3; interferon-lambda-3
B3: human IL-29 (ligand)
chain: GPVPTSKPTTTGKGCHIGRFKSLSPQELASFKKARDALEESLKLKNWSCSSPVFPGNWDLRLLQVRERPVALEAELALTLKVLEAAAGPALEDVLDQPLHTLHHILSQLQACIQPQPTAGPRPRGRLHHWLHRLQEAPKKESAGCLEASVTFNLFRLLTRDLKYVADGNLCLRTSTHPEST
notes: also called IFN-λ1; interferon-lambda-1

These binders were tested against T1, human IL-28R alpha subunit (assay: ELISA (right panel)).

Binding result, binds:
LLKDCKCRSRLFPRTWDLRQ (also called 28pep15) [Peptide 15 (IL28BT-2)]
LLKDCRCHSRLFPRTWDLRQ (also called 28pep16) [Peptide 16 (IL28AT-2)]
ELASFKKARDALEESLKL (also called 28pep1; Pep1) [Peptide 1 (IL29-1)]
KLKNWSCSSPVFPGNWDLRL (also called 28pep17; p17) [Peptide 17 (IL29T-2)]
ELQAFKRAKDALEESLLL (also called 28pep2; Pep2) [Peptide 2 (IL28-1)]
EATADTDPALGDVLDQPL (also called 28pep18) [Peptide 18 (IL28BT-3)]

Each binder was assayed against T1, human IL-28R alpha subunit (assay: Biacore assay (left panel), n=6).

Binding result, binds:
B1
B2
B3

Source: patent US20150307590A1 (GOVERNORS OF THE UNIVERSITY OF ALBERTA, published 2015)
